# According to patent publication US20020102658A1:
# T1: mouse AILIM (mouse) (UniProt Q9WVS0)
# T1 sequence (looked up): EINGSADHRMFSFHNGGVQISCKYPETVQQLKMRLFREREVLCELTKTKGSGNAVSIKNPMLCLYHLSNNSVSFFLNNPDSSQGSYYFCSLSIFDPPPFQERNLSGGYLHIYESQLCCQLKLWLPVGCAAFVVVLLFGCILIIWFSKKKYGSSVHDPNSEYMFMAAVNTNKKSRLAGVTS
# T2: human AILIM-IgFc (recombinant chimeric antigen of the extracellular region of human AILIM and the constant region (Fc) of human IgG1) (human) (UniProt Q9Y6W8)
# T2 sequence (biotin-labeled in the inhibition ELISA of Example 14, looked up): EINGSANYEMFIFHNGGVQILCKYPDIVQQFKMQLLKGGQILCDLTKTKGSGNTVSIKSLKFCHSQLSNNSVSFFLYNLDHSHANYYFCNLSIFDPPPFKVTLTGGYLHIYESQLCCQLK
# T3: rat AILIM (rat) (UniProt Q9R1T7)
# T3 sequence (looked up): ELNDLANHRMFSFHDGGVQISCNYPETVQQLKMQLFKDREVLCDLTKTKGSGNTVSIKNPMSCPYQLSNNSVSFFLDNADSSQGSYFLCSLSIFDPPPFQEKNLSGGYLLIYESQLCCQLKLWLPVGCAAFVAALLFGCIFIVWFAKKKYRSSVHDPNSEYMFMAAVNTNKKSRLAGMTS
# Key:
# mouse AILIM (mouse) = molecular target: T1, mouse AILIM (mouse); experiment: cell ELISA on recombinant CHO cells overexpressing mouse AILIM; given as ED50
# [1] = molecular target: human AILIM (activation inducible lymphocyte immunomodulatory molecule) (human) (UniProt Q9Y6W8); experiment: cell ELISA on recombinant CHO cells overexpressing human AILIM; given as ED50
# [2] = molecular target: T2, human AILIM-IgFc (recombinant chimeric antigen of the extracellular region of human AILIM and the constant region (Fc) of human IgG1) (human); experiment: SPR, Biacore X; human AILIM-IgFc immobilised on sensor chip, antibody in flow
# rat AILIM (rat) = molecular target: T3, rat AILIM (rat); experiment: cell ELISA on recombinant CHO cells overexpressing rat AILIM; given as ED50
EC50 (mouse AILIM (mouse)) [µg/mL],EC50 [1] [µg/mL],Kd [2] [nM],koff [2] [s⁻¹],EC50 (rat AILIM (rat)) [µg/mL],Binder
0.053,0.0105,1.1,4.2e-05,0.057,"human anti-human AILIM monoclonal antibody JMab-138 (clone AII289) (antibody, from another filing, human IgG2, V domains shown) VH: EVQLVESGGGLVQPGGSLRLSCAASGFTFSSYDMHWVRQATGKGLEWVSAIGTAGDTYYPGSVKGRFTISRENAKNSLYLQMNSLRAGDTAVYYCVRDNRKVTHEHYYYYGMDVWGQGTTVTVSS VL: EIVLTQSPGTLSLSPGERATLSCRASQNIRSSYLAWYQQKPGQAPGLLIYGASSRATGIPDRFSGSGSGTDFTLTISRLEPEDFAVYYCQQFGSSPMCSFGQGTKLEIKR"
0.06,0.0106,0.77,2.4e-05,0.09,"human anti-human AILIM monoclonal antibody JMab-139 (clone AII394) (antibody, from another filing, human IgG2, V domains shown) VH: EVQLVESGGGLVQPGGSLRLSCAASGFTFSSYDMHWVRQATGKGLEWVSAIGTAGDTYYPGSVKGRFTISRENAKNSLYLQMNSLRAGDTAVYYCVRDKRTVTHEHYYYYGMDVWGQGTTVTVSS VL: EIVLTQSPGTLSLSPGERATLSCRASQSISSSSLAWYQQKPGQAPGLLIFGASSRATGIPDRFSGSGSGTDFTLTISRLEPEDFAVYYCQQFGSSPMCSFGQGTKLEIKR"
